Measured values as given in PMC5748837, “Biochemical characterization of INTS3 and C9ORF80, two subunits of hNABP1/2 heterotrimeric complex in nucleic acid binding” (Biochemical Journal, 2017).

B1: C9ORF80, His-tagged (natural protein, human, UniProt Q9NRY2 1-104, looked up)
chain: MAANSSGQGFQNKNRVAILAELDKEKRKLLMQNQSSTNHPGASIALSRPSLNKDFRDHAEQQHIAAQQKAALQHAHAHSSGYFITQDSAFGNLILPVLPRLDPE
notes: C9ORF80, human cDNA clone; pET28a, NcoI/XhoI sites (this would give a C-terminal His tag); the printed masses fit the whole 104-residue protein; also called C9OFR80; source: peak 2); also co-expressed with GST-INTS3 and hNABP1/2 in E. coli Rosetta 2, in lysate
B2: Human nucleic acid-binding protein 2 (hNABP2) (natural protein, UniProt Q9BQ15 1-211, looked up)
chain: MTTETFVKDIKPGLKNLNLIFIVLETGRVTKTKDGHEVRTCKVADKTGSINISVWDDVGNLIQPGDIIRLTKGYASVFKGCLTLYTGRGGDLQKIGEFCMVYSEVPNFSEPNPEYSTQQAPNKAVQNDSNPSASQPTTGPSAASPASENQNGNGLSAPPGPGGGPHPPHTPSHPPSTRITRSQPNHTPAGPPGPSSNPVSNGKETRRSSKR
notes: also called hSSB1; source: also co-expressed (pET29a) with GST-INTS3 and C9ORF80 in E. coli Rosetta 2, in lysate
B3: Human nucleic acid-binding protein 1 (hNABP1) (natural protein, UniProt Q96AH0 1-204, looked up)
chain: MNRVNDPLIFIRDIKPGLKNLNVVFIVLEIGRVTKTKDGHEVRSCKVADKTGSITISVWDEIGGLIQPGDIIRLTRGYASMWKGCLTLYTGRGGELQKIGEFCMVYSEVPNFSEPNPDYRGQQNKGAQSEQKNNSMNSNMGTGTFGPVGNGVHTGPESREHQFSHAGRSNGRGLINPQLQGTASNQTVMTTISNGRDPRRAFKR
notes: also called hSSB2; source: also co-expressed (pET29a) with GST-INTS3 and C9ORF80 in E. coli Rosetta 2, in lysate

molecular target: T1, GST-tagged N-terminal region of INTS3 (GST-INTS3^N, 1-513 amino acids) (human, UniProt Q68E01 1-513); assay: pull-down; GST-INTS3^FL, -INTS3^N or -INTS3^C incubated with hNABP1/2 or C9ORF80 at 4 C for 1 h, then glutathione-agarose beads 1 h; eluted with 10 mM glutathione; Western blot; details: both partners purified
T1 construct: Integrator complex subunit 3 (INTS3), human, N-terminal region, residues 1-513; pGEX-6P-1; source: E. coli Rosetta 2, purified (glutathione sepharose beads); not shown: GST, N-terminal, kept
T1 sequence (Q68E01 1-513): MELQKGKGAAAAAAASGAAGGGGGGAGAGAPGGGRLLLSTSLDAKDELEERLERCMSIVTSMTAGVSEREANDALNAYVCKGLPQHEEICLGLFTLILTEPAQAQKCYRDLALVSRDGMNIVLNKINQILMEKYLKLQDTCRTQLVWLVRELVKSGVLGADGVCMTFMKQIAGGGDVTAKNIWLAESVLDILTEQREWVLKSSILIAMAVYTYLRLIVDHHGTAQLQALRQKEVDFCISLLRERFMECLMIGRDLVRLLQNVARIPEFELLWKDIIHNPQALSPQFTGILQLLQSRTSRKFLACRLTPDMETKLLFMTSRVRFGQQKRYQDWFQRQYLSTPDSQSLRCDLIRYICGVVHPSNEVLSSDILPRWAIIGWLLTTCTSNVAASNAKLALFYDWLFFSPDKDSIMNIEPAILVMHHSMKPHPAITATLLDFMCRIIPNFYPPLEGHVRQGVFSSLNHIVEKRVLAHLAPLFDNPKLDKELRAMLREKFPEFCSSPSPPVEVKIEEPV

Binding result, binds:
B1
B2
B3
